Results published in the nanobody polyreactivity screen of Harvey et al. (2022).

Experiment: yeast display, Sf9 membrane polyspecificity reagent, FACS + sequencing; frameworks hold sequencing errors
In short: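 Synthetic nanobody libraries on Saccharomyces cerevisiae BJ5465 were galactose-induced for 36–48 hours, stained 1 hour at 4 °C with 10% biotinylated, detergent-solubilized Sf9 membrane reagent and enriched on streptavidin microbeads. FACS then separated cells into low and high (top ~1%) gates by anti-HA (expression) and streptavidin (reagent binding) fluorescence. Genes were colony-PCR amplified, MiSeq 2 × 250 sequenced and CDR-length filtered. A clone's polyreactivity label is that of its gate of origin.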

Sequence | polyreactivity (PSR sort gate)
QVQLVESGGGLVQAGGSLRLSCAASGLIFYWNTMGWYRQAPGKERELVAYISGGGGRTYYADSVKGRFTISRDNAKNTVYLQMNSLKPEDTAVYYCAAKLYGYRSGYYYWGQGTQVTVSS | high polyreactivity
QVQLVESGGGLVQAGGSLRLSCAASGSTFTGYAMGWYRQAPGKEREMVAAISSDGITKYADSVKGRFTISRDNAKYTVYLQMNSLKQEDTAVYYCYAPRGSRRSYRRTEYYYWGQGTQVTVSS | high polyreactivity
QVQLVESGGGLVQAGGSLRLSCAASGSIFRYYDMGWYRQAPGKERELVAAISWSGGTTYYADSVKGRFTISRDNAKNTVYLQMNSLKPEDTAVYYCNRVRYPSYDYWGQGTQVTVSS | high polyreactivity
QVQLVESGGGLVQAGGSLRLSCAASGLTFRYYAMGWYRQAPGKERELVAAITRRGSTYYADSVKGRFTISRDNAKNTVYLQMNCLKPEDTAVYYCATVTGFHSSPLRDLDYWGQGTQVTVSS | high polyreactivity
QVQLVESGGGLVQAGGSLRLSCAASGRTFYDNAMGWYRQAPGKERELVAAITKSGGRTYYADSVKGRFTISRDFAKNTVYLQMNSLKPEDTAVYYCAASWPNYLYEYWGQGTQVTVSS | high polyreactivity
QLQHVESGVGIVQAGRSLRLSCAASGRTFSHYAMGWYRQAPGKERELVAAIRWRGGSTYYADSVKGRFTISRDNAKNTVYLQMNSRKPEDTAVSYCAAVALYIWTHPSDYWGLGTQVTVSS | high polyreactivity
QVQLVESGGGLVQAGGSLRLSCAASGSIFKINAMGWYRQAPGKERELVATITWSTGTTYYADSVKGRFTISRDNAKNTVYLQMNSLKPEDTAVYYCATDGDSTKLDYWGQGTQVTVSS | low polyreactivity
QVQLVDSGGGLVQAGGSLRLSCAASGRIFRPYAMGWYREAPRKERELVAAISFSGGSTYYADSVKGRFTISRDNAKNTVYLQMNSVKPEDTAVYYCNAVFINKYGKYGDWGQGTQVTVSS | high polyreactivity
QVQLVESGGGLVQAGGSLRLSCAASGSTFWEKAIGWSRQAPGKEMELAAAISWGGASTYYADSVKGRFTISRDNAKNTVYLQMNSLKPEDTAVYYCAADQTSTQFLSSYGGYNYWGQGTQVTVSS | low polyreactivity
QVQLVESGGGLVQAGGSLRLICAASGFTYRGYAMGWYRQAPGKERELVAAISSSVGSTYYADAVKGRFTISRDNAKNTVYLQKISLKPEDTAVYYCAARKGYVIRYNYWGQGTQVTVSS | high polyreactivity
QVQLVESGGGLVQAGGSLRLSCAASGSIFTYYAMGWYRQAPGKERELVAGISGGGRTNYADSVKGRFTISRDNAKNTVYLQMNSLKPEDTAVFYCAADWSFSTIRYWRFDSDYWGQGTQVTVSS | high polyreactivity
QVQLVESGGGLVQAGGSLRLSCAASGSIFGDNAMGWYRQAPGKERELVASITWSGGSTFYADSVKGRFTISRDNAKNTVYLQMNSLKPEDTAVYYCNADYAESPYFYLLLDYWGQGTQVTVSS | low polyreactivity
QVQLVESGGGLVQAGGSLRLSCAASGLTFYHYAMGWYRQAPGIERELVAAISYSGSRTYYADSVKGRFTISRDTAKNTVYLQMNSLKPEVTAVYYCAAKRTKEYDYWGQGTQVTVSS | high polyreactivity
QVQLVESGGGLVQAGGSLRLSCAASGITFGRYAMGSYRQPPGKEREFVAAISWSGGSTYYADSVKGRFTISLDNATNPVYLQINSLKPEDTAVYYCAVEWYYTSYHIRVYRDNYWGQGTQVTVSS | high polyreactivity
QVQLVETGGGLVQAGGSLRLSCAASGFIQSGYAMGWYRQAPGKERELVATITWRDGSTYYADSVKGRYTISRDNAKNTVYLQKNSLKPEDTEVYYCAVAAYSRRSPYYHYNYWGQGTQVTVSS | high polyreactivity
QVQLVESGGGLVQAGGSLRLSCAASGSTFGRYAMGWYRQAPGKERELVAGITSSGRTNYADSVKGRFTISRDNAKNTVYLQMNSLKPEDTAVYYCAKRWLRYGYRYDYWGQGTQVTVSS | high polyreactivity

Sequence | polyreactivity (PSR sort gate)
QVQLVESGGGLVQAGGSLRLSCAASGRIFTDYAMGWYRQAPGKEREFVAAINKSGGSTYYADSVKGRFTISRDNAKNTVYLQMNSLKPEDTAVYYCAKPHVIYPSYDYWGQGTQVTVSS | low polyreactivity
QVQLVESGGGLVQAGGSLRLSCAASGSTIYGYGMGWYRQAPGKERELVAAITGSGDTTYYADSVKGRFTISRDNAKNNVYLQMNSLKPEDTAVYYCNARWHAEYDYWGQGTQVTVSS | low polyreactivity
QVQLVESGGGLVQAGGSLRLSCAASGRTFYINAMGWYRQAPRKERELVAAITSVGSTNYADSVKGRFTISRDNAKNNVYIQMNSLKPEDTAVYYCAAESTEGTSGDYDYWGQGTQVTVSS | low polyreactivity
QVQLVESGGGLVQAGGSLRLSCAASGGTFRVYAMGWYRQAPGKERELVAAITGRGGSTYYADSVKGRFTISRDNAKNTVYLQMNSLKPEDTAVYYCNKESELVEYDYWGQGTQVTVSS | low polyreactivity
QVQLVESGGGLVQAGGSLRLSCAASGIIISLYAMGWYSQAPGKERELVATISTGGGTYYADSVKGRFTISRDNAKNTVYLQINSLKPEDTAVYYCAARRSYYGRSYYYWGQGTQVTVSS | high polyreactivity
QVQLVESGGGLVQAGGSLRLSCAASGIFDPNAMGWYRQAPGKERELVAAITSGGSTNYADSVKGRFTISRDNAKNTVYLQMNSLKPVDTAVYYCNADSYDEIKYGYWGQGTQVTVSS | low polyreactivity
QVHLVESGGGLVQAGGSLRLSCAASGRIFRVYAMGWYRQAPGKERELVAAIRWSTGSTYYADSVKGRFTISRDIAKNTVYLHMNSLKPEDTAVYYCASYYYSSCSKFDYWGQGTQVTVSS | high polyreactivity
QVQLVESGGGLVQAGGSLRLSCAASGSMFFWYVMGWYRQAPGKERELVASISSGGSTYYADSVKGRFTISRDNAKNTVYLQMNSLKPEDTAVYYCNAKSWSPAKSFSFFRFDYWGQGTQETVSS | low polyreactivity
QVQIVESGGGLVQAGGSLRLSCAASGSTFTWYAMGWYRQAPGKERELVAAIRYSGDSTYYADSVKGRFTISRDNAKNTVYLQMNSLKPEDTAVYYCAAQYYPQYRRRMNYWGQGTQVTVSS | high polyreactivity
QVQLEESGGGLVQAGGSLRLSCAAYGRTFPNYAMGRYRQAPGKEREMVADISSSGVSTYYADSVKGRFTISRDNAKNTVYLKMNSLKPEDTAVYYCAARSWWFQRGEYWGQGTQVTVSS | high polyreactivity
QVQLVESGGGLVQAGGSLRLSCAASGSTFTRYDMGSYRQAPGKERELVAAISKSGGSTYYADSVKGRFRISRDNAKNTVYLQMNSLKPEDTAVYYCNQLVEEDYWGQGTQVTVSS | low polyreactivity
QVQLVESGGGLVQAGGSLRLSCAASGRTFDLYAMGWYRQAPGKERELVAAITKGGGSTYYADSVKGRFTISRDNAKNTVYLQMNSLKPEDTAVYYCAARFYYPWLYLFDSWGQGTQVTVSS | high polyreactivity
QDQLVESGGGLVQAGVSLRISCAASGFTFRGNAMGWYRQAPGKERELVAAITSSDDSTYYADSVKGRFTNSRDNAKNTVYLQMNSLKPEDTAVYYCAAVANGYWTYEYWGQGTQVTVSS | low polyreactivity
QVQLVESGGGLVQAGGSLRLSCAASGRIFSYNAMGWYRQAPGKEREFVAAIDWRAGSTYYADSVKGRFTISRDNAKKTVYLQMNSLKPEDTAVYYCAVEFGAYPFLYYYWGQGTQVTVSS | high polyreactivity
QVQLVESGGGLVQAGGSLRLICAASGSTFSINAMGRYRQAPGKERELVAAITTSVDSTYYADSVKGRFTISRDNAKNTVYLQMNSLIPEDTAVYYCAVAFVQFNQYDYWGQGTQVTVSS | low polyreactivity
QVQLVDSGGGLVQAGGSLRLSCAASGSTVAYYAMGLYRQPTVKERELVAAITRGGSTYYADSVKGRFTISRDNAMNTVYLHLNSLKPEDTAVYYCSAEFVVQYYVYGYTLGYDYWGQGTQVTVSS | high polyreactivity
